Assay results published in the supplement of paper PMC10567573.

B1: ALDH8A1 (parent)
chain: FTGSQPTAERITQLSAPHCKKLSL

Variants of: B1
Experiment: protein stability index of a GFP-peptide fusion (GPS, HEK-293T) (PSI 1-6); higher = more stable
Conditions: c terminus: a fixed tail appended
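Also: lentivirally expressed fusions sorted by FACS into six bins by GFP to DsRed ratio, PSI derived from sequencing read proportions per bin multiplied by bin number.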

Point of comparison: FTGSQPTAERITQLSFPHCKKLSL, protein stability index 2.33. Against it:
- FTGSQPTAERITQLLAPHCKKLSL — higher, 2.87
- FTGSQPTAERITQLSAFHCKKLSL — lower, 1.85
- FTGSQPTAERITQLSASHCKKLSL — lower, 2.18
- FTGSQPTAERITQLSATHCKKLSL — lower, 2.24
- FTGSQPTAERITQLSACHCKKLSL — lower, 2.13
- FTGSQPTAERITQLSAMHCKKLSL — lower, 2.04
- FTGSQPTAERITQLSALHCKKLSL — lower, 1.78
- FTGSQPTAERITQLSAGHCKKLSL — lower, 2.25
- FTGSQPTAERITQLSAAHCKKLSL — higher, 2.49
- FTGSQPTAERITQLSANHCKKLSL — higher, 2.55
- FTGSQPTAERITQLSAVHCKKLSL — lower, 1.96
- FTGSQPTAERITQLSAEHCKKLSL — higher, 2.77
- FTGSQPTAERITQLSAIHCKKLSL — higher, 2.38
- FTGSQPTAERITQLSARHCKKLSL — higher, 2.49
- FTGSQPTAERITQLSAHHCKKLSL — higher, 2.34
- FTGSQPTAERITQLSAKHCKKLSL — lower, 2.12
- FTGSQPTAERITQLSAQHCKKLSL — higher, 2.48
- FTGSQPTAERITQLSAWHCKKLSL — higher, 2.46
- FTGSQPTAERITQLSADHCKKLSL — higher, 2.8
- FTGSQPTAERITQLSGPHCKKLSL — higher, 2.5
- FTGSQPTAERITQLSIPHCKKLSL — lower, 2.25
- FTGSQPTAERITQLSNPHCKKLSL — higher, 2.58
- FTGSQPTAERITQLSKPHCKKLSL — lower, 2.03
- FTGSQPTAERITQLSMPHCKKLSL — lower, 1.91
- FTGSQPTAERITQLSCPHCKKLSL — lower, 1.55
- FTGSQPTAERITQLSHPHCKKLSL — lower, 2.13
- FTGSQPTAERITQLSRPHCKKLSL — higher, 2.43
- FTGSQPTAERITQLSTPHCKKLSL — higher, 2.63
- FTGSQPTAERITQLSEPHCKKLSL — lower, 2.26
- FTGSQPTAERITQLSVPHCKKLSL — lower, 2.27
- FTGSQPTAERITQLSDPHCKKLSL — higher, 2.52
- FTGSQPTAERITQLSWPHCKKLSL — lower, 1.45
- FTGSQPTAERITQLSSPHCKKLSL — lower, 2.17
- FTGSQPTAERITQLSQPHCKKLSL — lower, 2.1
- FTGSQPTAERITQLSYPHCKKLSL — lower, 2.05
- FTGSQPTAERITQLSPPHCKKLSL — higher, 2.39
- FTGSQPTAERITQLSLPHCKKLSL — lower, 2.17
- FTGSQPTAERITQVSAPHCKKLSL — lower, 1.9
- FTGSQPTAERITQISAPHCKKLSL — higher, 2.53
- FTGSQPTAERITQNSAPHCKKLSL — higher, 2.4
- FTGSQPTAERITQHSAPHCKKLSL — higher, 2.58
- FTGSQPTAERITQCSAPHCKKLSL — lower, 1.79
- FTGSQPTAERITQGSAPHCKKLSL — higher, 2.56
- FTGSQPTAERITQTSAPHCKKLSL — higher, 2.87
- FTGSQPTAERITQMSAPHCKKLSL — lower, 1.86
- FTGSQPTAERITQWSAPHCKKLSL — lower, 2.2
- FTGSQPTAERITQDSAPHCKKLSL — higher, 3.04
- FTGSQPTAERITQESAPHCKKLSL — higher, 3.18
- FTGSQPTAERITQYSAPHCKKLSL — higher, 2.39
- FTGSQPTAERITQKSAPHCKKLSL — higher, 2.73
- FTGSQPTAERITQPSAPHCKKLSL — higher, 2.77
- FTGSQPTAERITQFSAPHCKKLSL — lower, 1.79
- FTGSQPTAERITQRSAPHCKKLSL — higher, 2.37
- FTGSQPTAERITQASAPHCKKLSL — lower, 2.26
- FTGSQPTAERITQQSAPHCKKLSL — higher, 2.57
- FTGSQPTAERITQSSAPHCKKLSL — higher, 2.76
- FTGSQPTMERITQLSAPHCKKLSL — higher, 2.58
- FTGSQPTNERITQLSAPHCKKLSL — lower, 2.09
- FTGSQPTKERITQLSAPHCKKLSL — lower, 1.8
- FTGSQPTDERITQLSAPHCKKLSL — lower, 2.16
- FTGSQPTFERITQLSAPHCKKLSL — lower, 1.42
- FTGSQPTQERITQLSAPHCKKLSL — higher, 2.4
- FTGSQPTVERITQLSAPHCKKLSL — higher, 2.45
- FTGSQPTPERITQLSAPHCKKLSL — lower, 2.3
- FTGSQPTEERITQLSAPHCKKLSL — higher, 2.6
- FTGSQPTRERITQLSAPHCKKLSL — higher, 2.6
- FTGSQPTTERITQLSAPHCKKLSL — lower, 2.24
- FTGSQPTYERITQLSAPHCKKLSL — lower, 2.27
- FTGSQPTGERITQLSAPHCKKLSL — higher, 2.95
- FTGSQPTSERITQLSAPHCKKLSL — lower, 1.9
- FTGSQPTIERITQLSAPHCKKLSL — higher, 2.46
- FTGSQPTLERITQLSAPHCKKLSL — higher, 2.42
- FTGSQPTWERITQLSAPHCKKLSL — higher, 3.71
- FTGSQPTHERITQLSAPHCKKLSL — higher, 2.61
- FTGSQPTAERITELSAPHCKKLSL — higher, 2.5
- FTGSQPTAERITYLSAPHCKKLSL — lower, 1.97
- FTGSQPTAERITGLSAPHCKKLSL — lower, 2.31
- FTGSQPTAERITRLSAPHCKKLSL — lower, 1.91
- FTGSQPTAERITDLSAPHCKKLSL — higher, 2.61
- FTGSQPTAERITALSAPHCKKLSL — lower, 2.31
- FTGSQPTAERITWLSAPHCKKLSL — higher, 2.67
- FTGSQPTAERITHLSAPHCKKLSL — lower, 2.24
- FTGSQPTAERITMLSAPHCKKLSL — lower, 2.03
- FTGSQPTAERITSLSAPHCKKLSL — lower, 2.12
- FTGSQPTAERITCLSAPHCKKLSL — lower, 2
- FTGSQPTAERITILSAPHCKKLSL — lower, 1.35
- FTGSQPTAERITPLSAPHCKKLSL — lower, 2.16
- FTGSQPTAERITTLSAPHCKKLSL — lower, 2.3
- FTGSQPTAERITFLSAPHCKKLSL — higher, 2.94
- FTGSQPTAERITKLSAPHCKKLSL — higher, 2.48
- FTGSQPTAERITLLSAPHCKKLSL — lower, 2.08
- FTGSQPTAERITVLSAPHCKKLSL — lower, 1.69
- FTGSQPTAERITNLSAPHCKKLSL — lower, 2.2
